Reference: US6710030B1, “Contortrostain (CN) and methods for its use in preventing metastasis and other conditions” (University of Southern California, priority 1993, dated 2004)
Entries after “also recorded” stand apart in the source; their conditions may differ. Read-outs that look alike come from different tables or passages of the source.

How the values were obtained:
canine PRP = experiment: ADP-induced platelet aggregation in canine PRP; format: cell-based; conditions: 20 μM ADP
Protocol: (§1) Column fractions obtained during purification were assayed for activity using fresh human platelet rich plasma (PRP) prepared from blood obtained from human volunteers who had had no medication for at least two weeks. Blood (36 ml) was drawn into 4 ml of 0.1 M citrate and centrifuged at 150×g for 20 minutes. The supernatant, PRP, was removed and the remaining blood was centrifuged at 10,000 RPM to obtain platelet poor plasma (PPP). Platelet counts were adjusted to 250,000 platelets/μl using a Coulter counter. A Helena four channel aggregometer was used to monitor platelet aggregation. Inhibition of ADP-induced platelet aggregation was monitored at 37° C. by adding venom fractions one minute prior to the addition of ADP (10-20 μM final concentration). […] Rabbit and canine PRP was prepared by the same procedure and used in the studies described below.
(§2) CN inhibited ADP-induced platelet aggregation in human, canine, and rabbit PRPs (FIG. 6). Empty circles represent human platelet rich plasma, solid circles represent canine PRP, and empty triangles represent rabbit PRP. Varying concentration of CN were preincubated for one minute with PRP prior to the addition of ADP.

purified αvβ5 = purified αvβ5 (Homo sapiens, UniProt P06756+P18084); experiment: Solid-phase binding of contortrostatin to purified αvβ5 (modified ELISA); conditions: 100 ng αvβ5 per well
purified αvβ5, sequence (P06756 31-889 limits assumed): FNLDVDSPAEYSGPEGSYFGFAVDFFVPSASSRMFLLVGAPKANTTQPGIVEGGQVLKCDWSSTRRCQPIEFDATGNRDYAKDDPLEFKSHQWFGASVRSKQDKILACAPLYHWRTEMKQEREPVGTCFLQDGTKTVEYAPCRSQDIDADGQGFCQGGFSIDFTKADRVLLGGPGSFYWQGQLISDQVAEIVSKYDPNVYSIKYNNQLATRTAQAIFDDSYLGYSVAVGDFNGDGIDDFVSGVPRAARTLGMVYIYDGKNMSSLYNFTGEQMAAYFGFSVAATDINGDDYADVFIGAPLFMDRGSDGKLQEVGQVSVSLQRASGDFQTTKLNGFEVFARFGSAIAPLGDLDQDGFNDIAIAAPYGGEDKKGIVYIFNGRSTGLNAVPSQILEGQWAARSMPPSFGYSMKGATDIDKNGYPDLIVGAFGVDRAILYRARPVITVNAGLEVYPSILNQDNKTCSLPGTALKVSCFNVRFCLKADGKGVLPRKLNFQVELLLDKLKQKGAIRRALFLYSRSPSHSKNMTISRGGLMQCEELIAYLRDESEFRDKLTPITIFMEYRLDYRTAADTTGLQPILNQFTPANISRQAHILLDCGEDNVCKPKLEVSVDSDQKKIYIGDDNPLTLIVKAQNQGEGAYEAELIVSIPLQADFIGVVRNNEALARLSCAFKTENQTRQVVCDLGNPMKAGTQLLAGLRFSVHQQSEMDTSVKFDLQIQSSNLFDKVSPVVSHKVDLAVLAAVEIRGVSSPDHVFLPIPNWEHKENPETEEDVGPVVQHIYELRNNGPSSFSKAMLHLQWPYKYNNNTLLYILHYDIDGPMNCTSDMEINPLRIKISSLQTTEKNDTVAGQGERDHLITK
purified αvβ5, sequence (P18084 24-799): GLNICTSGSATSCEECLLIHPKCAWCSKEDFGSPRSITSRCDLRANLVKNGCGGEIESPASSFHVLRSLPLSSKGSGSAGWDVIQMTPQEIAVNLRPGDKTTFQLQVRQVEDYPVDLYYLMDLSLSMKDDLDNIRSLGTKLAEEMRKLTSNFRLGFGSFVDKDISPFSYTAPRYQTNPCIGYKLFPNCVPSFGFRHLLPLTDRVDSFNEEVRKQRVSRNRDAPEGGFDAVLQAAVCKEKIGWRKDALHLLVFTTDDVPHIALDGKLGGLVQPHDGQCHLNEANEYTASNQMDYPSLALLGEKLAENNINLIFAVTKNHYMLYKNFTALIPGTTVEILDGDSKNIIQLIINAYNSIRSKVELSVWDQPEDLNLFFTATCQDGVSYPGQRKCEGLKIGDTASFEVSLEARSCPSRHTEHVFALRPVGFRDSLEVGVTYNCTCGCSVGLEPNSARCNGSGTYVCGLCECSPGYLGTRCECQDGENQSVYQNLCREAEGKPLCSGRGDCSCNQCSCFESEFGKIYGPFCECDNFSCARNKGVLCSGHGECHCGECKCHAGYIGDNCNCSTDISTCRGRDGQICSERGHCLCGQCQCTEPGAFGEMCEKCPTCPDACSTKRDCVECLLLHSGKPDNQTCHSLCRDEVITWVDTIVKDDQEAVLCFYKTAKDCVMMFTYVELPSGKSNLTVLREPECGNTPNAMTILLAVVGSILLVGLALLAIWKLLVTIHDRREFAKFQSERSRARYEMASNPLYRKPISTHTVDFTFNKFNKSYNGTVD
Protocol: Experiment 3: Detection of the binding of contortrostatin to αvβ5: Direct evidence that contortrostatin binds to αvβ5 was collected by solid-phase binding assay using purified αvβ5 and a modified ELISA. Soluble αvβ5 (100 ng) was immobilized on wells of a 96-well plate at 4° C. overnight. Excess protein was washed off, and unbound sites were blocked with 1% BSA/PBS. Contortrostatin at various concentrations was allowed to bind to the coated plate at room temperature for one hour. After three washes with PBS, the bound contortrostatin molecules were detected with 1:1,000 antiserum against contortrostatin. Goat anti-rabbit antibody conjugated with alkaline phosphotase was used as a secondary antibody. The bound antibodies were quantitated by applying substrate disodium p-nitrophenyl phosphate (pNPP) and determining the light absorbance at 405 nm 15 minutes after the initiation of the chromagenic reaction. The background is defined by the binding of antiserum against the disintegrin to immobilized αvβ5. Specific binding is obtained by substrating the background from the total binding. Analyses of each concentration of ligand were performed in triplicate.

T24 cells = experiment: Cellular binding to laminin and Matrigel; format: cell-based, human
[1] = tested on: adhesion formation during wound healing; experiment: Rabbit model of adhesion formation (uterine horns); format: in vivo; conditions: Alzet pumps, 10 μl/hr (36 μg/ml)
Protocol: In preliminary studies in a rabbit model of adhesion formation, abrasion and devascularization of the uterine horns of rabbits were employed to induce adhesion formation during wound healing in untreated animals [Rodgers, K. et al., Int. J. Fertil. 35:40 (1990)]. Alzet pumps were employed to continuously deliver CN at a rate of 10 μl/hr (36 μg/ml). […] Therefore, compositions and methods for preventing adhesion formation whereby an amount of CN effective to prevent adhesion formation is administered to a patient in need of such treatment are also contemplated as within the scope of the present invention.

rabbit PRP = experiment: ADP-induced platelet aggregation in rabbit PRP; format: cell-based; conditions: 20 μM ADP
Protocol: as §1, §2

T24-β3 neg. cells = experiment: Adhesion of T24-β3 neg. cells to immobilized vitronectin; format: cell-based, human; conditions: FIG. 19 C, D
Protocol: Experiment 1. Cell adhesion assay: Human bladder carcinoma T24 cells were purchased from ATCC, and grown in RPMI1640 medium containing 5% fetal bovine serum. T24-β3 neg. cells were isolated by 6 rounds of negative FACS selection with anti-αvβ3 monoclonal antibody (mAb) LM609. FACS analysis was then performed as follows. The cells were resuspended in 1% BSA/PBS at a density of 1×10^7/ml. Aliquots of 100 μl were incubated with anti-αvβ3 mAb 7E3 or anti-αvβ5 mAb P1F6 (final concentration 5 μg/ml) at room temperature for 30 minutes. The cells were washed twice and resuspended in 1% BSA/PBS. Goat anti-mouse IgG conjugated with FITC was added to the suspension at a final titer of 1:200. After 30 minutes incubation at room temperature in darkness, unbound FITC-conjugated IgG was washed off, and the fluorescent intensity of the cells was analyzed using flow cytometry (FACScan, Becton Dickinson, Bedford, Mass.). Tests were performed in duplicate and the experiment was repeated three times. The results clearly indicate that T24 cells express both integrins αvβ3 (major) and αvβ5 (minor), but T24-β3 neg. cells only express αvβ5 (FIG. 18)
Individual wells of 96-well plates were coated at 4° C. overnight with 100 μl of vitronectin (1 μg/well). […] Cell adhesion was quantified either by CellTiter 96™ Aqueous Proliferation Assay kit (Promega, Madison, Wis.). […]

[2] = tested on: c-Ha-ras transfected rat embryo (4R) cells; conditions: cited from earlier work

B1: contortrostatin (protein)
chain: DAPANPCCDAATCKLTTGSQCADGLCCDQCKFMKEGTVCRRARGDDLDDYCNGISAGCPRNPFHA
With B1 the “IC50 of ADP-induced canine platelet aggregation” value (canine PRP) was 1.8 µg/mL, the “binding to immobilized αvβ5” value (purified αvβ5) was “binds to αvβ5 in a dose-dependent and saturable manner” and the “cellular binding to Matrigel” value (T24 cells) was “does not inhibit cellular binding to Matrigel”. The “cellular binding to laminin” value (T24 cells) was “does not significantly inhibit cellular binding to laminin”, the adhesion formation [1] was “decreased adhesion formation” and the “IC50 of ADP-induced rabbit platelet aggregation” value (rabbit PRP) was 17.3 µg/mL. For the same molecule, the “adhesion of T24-β3 neg. cells to vitronectin, in words” value (T24-β3 neg. cells) was “completely inhibited adhesion; also recorded: inhibits adhesion of T24-β3 neg. completely”, the “Inhibition of 4R cell binding to fibronectin” value ([2]; CN at 1 μg/ml) was 46% and the “Inhibition of 4R cell binding to fibronectin” value ([2]; CN at 5 μg/ml) was 88%.
